T1: human B7-H4 expressed on cells (human, UniProt Q7Z7D3 25-282)
T1 construct: Transfected CHO cells or tumor cell lines that carry hB7-H4; also called cellular hB7-H4
T1 sequence: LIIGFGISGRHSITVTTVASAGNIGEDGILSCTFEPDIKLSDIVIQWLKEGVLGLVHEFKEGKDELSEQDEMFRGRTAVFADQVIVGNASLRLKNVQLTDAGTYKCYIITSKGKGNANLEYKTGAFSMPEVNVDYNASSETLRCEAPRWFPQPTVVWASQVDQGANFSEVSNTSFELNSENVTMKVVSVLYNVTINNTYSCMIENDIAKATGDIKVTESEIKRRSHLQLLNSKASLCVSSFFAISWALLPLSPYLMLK

T2: mB7-H4 (soluble mouse B7-H4, construct not named) (mouse, UniProt Q7TSP5 25-257, limits assumed)
T2 sequence: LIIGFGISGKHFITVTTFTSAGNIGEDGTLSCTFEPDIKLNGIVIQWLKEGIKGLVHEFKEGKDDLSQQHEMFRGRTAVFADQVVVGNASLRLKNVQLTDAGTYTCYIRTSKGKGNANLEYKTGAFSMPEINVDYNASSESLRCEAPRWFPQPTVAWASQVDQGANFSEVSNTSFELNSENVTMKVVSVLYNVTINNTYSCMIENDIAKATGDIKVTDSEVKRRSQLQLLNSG

T3: mouse B7-H4 expressed on cells (mouse, UniProt Q7TSP5 25-257)
T3 construct: also called cellular mB7-H4; mB7-H4/CT26
T3 sequence: T2 sequence

B1: Control antibody 1 (antibody 20502 described in US20190085080A1) (antibody, V domains shown)
VH: QLQLQESGPGLVKPSETLSLTCTVSGGSIKSGSYYWGWIRQPPGKGLEWIGNIYYSGSTYYNPSLRSRVTISVDTSKNQFSLKLSSVTAADTAVYYCAREGSYPNQFDPWGQGTLVTVSS
VL: EIVMTQSPATLSVSPGERATLSCRASQSVSSNLAWYQQKPGQAPRLLIYGASTRATGIPARFSGSGSGTEFTLTISSLQSEDFAVYYCQQYHSFPFTFGGGTKVEIK
notes: also called (+) control Ab1; (+) Ab1
B2: 39A11/57G8 (antibody, human IgG1, V domains shown)
VH: EVQLLESGGGLVQPGGSLRLSCAASGFTFSSYGMHWVRQAPGKGLEWVASISSSSGYIYYADSVKGRFTISRDNSKNTLYLQMNSLRAEDTAVYYCARASSGMDVWGQGTTVTVSS
VL: DIQMTQSPSSLSASVGDRVTITCRASQSIRSYLNWYQQKPGKAPKLLIYYASSLQSGVPSRFSGSGSGTDFTLTISSLQPEDFATYYCQQYYSTPLTFGQGTKVEIK
notes: 39A11 VH with 57G8 VL

What was measured:
human B7-H4-Fc = molecular target: T4, human B7-H4-Fc (human); assay: ELISA, coated hB7-H4-Fc
T4 construct: also called hB7-H4-Fc; hB7-H4 Fc
T4 sequence (chain, as listed by the source): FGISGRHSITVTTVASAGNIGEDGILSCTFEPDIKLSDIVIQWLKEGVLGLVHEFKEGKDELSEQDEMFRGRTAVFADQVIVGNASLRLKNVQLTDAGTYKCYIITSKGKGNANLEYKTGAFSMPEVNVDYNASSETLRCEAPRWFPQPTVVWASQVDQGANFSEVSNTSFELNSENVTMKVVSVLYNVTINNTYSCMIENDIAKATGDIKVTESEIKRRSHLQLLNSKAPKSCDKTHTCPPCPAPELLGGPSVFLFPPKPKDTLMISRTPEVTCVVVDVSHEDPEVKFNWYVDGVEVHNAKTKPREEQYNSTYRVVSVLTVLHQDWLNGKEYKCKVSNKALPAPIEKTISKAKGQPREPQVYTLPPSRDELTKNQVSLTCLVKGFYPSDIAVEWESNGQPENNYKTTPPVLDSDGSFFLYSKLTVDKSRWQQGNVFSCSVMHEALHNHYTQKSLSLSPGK

mouse B7-H4-Fc [1] = molecular target: T5, mouse B7-H4-Fc (mouse; human); assay: ELISA on coated mB7-H4-Fc
T5 construct: also called mB7-H4-Fc; mB7-H4-hFc
T5 sequence (chain, as listed by the source): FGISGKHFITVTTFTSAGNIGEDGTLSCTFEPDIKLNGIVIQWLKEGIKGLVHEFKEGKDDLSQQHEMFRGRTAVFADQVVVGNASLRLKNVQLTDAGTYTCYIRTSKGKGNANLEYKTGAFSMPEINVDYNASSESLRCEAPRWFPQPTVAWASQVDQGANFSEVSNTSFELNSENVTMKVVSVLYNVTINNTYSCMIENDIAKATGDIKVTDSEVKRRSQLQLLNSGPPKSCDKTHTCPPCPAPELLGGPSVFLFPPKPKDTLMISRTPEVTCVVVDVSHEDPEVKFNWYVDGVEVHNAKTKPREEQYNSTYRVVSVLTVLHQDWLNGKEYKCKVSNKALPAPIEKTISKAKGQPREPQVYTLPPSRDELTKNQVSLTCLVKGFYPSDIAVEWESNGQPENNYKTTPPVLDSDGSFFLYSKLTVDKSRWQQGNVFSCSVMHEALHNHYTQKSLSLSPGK
Description: (§1) About 1-2 μg/ml of human or mouse B7-H4-Fc (or his-tagged) was immobilized on ELISA plates (Immuno 2HB, Thermo scientific, cat #3455) at 4° C. overnight. After blocking the plates with 3% PBS+milk, serial diluted antibodies were added to the blocked plates and incubated at RT for 1-1.5 h. After washing the plates with PBS-T (0.05%), horse radish peroxidase (HRP)-conjugated antibody targeting the hFab was added to the plate. Signals were developed by adding 3,3′,5,5′-Tetramethylbenzidine (TMB (followed 1N of H₂SO₄ to stop the reaction. The OD at 450 nm was read by ELISA plate reader (Infinite M1000 from TECAN). GraphPad from Prism was used to plot OD450 vs. antibody concentration curve and to calculate the EC50 values.

[2] = molecular target: T1, human B7-H4 expressed on cells; assay: flow cytometry, SK-BR-3 cells
mouse B7-H4-Fc [3] = molecular target: T5, mouse B7-H4-Fc; assay: ELISA, coated mB7-H4-Fc
Description: ELISA experiments were performed to determine binding to hB7-H4-Fc (FIG. 5A), hB7-H4-his (FIG. 5B), mB7-H4-Fc domain (FIG. 5C), hB7-H4 IgV domain (FIG. 5D), and hB7-H4 IgC domain (FIG. 5E). Flow cytrometry experiments were performed to determine binding to CHO cells expressing hB7-H4 (FIG. 5F) or mB7-H4 (FIG. 5G). […] A cross-reactive IgV binding antibody and an IgC binding antibody were used as controls.
as §1

[4] = molecular target: T2, mB7-H4 (soluble mouse B7-H4, construct …); assay: SPR (Biacore)
Procedure, shortened: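 Kinetic constants came from a 1:1 Langmuir fit of binding at 25 °C in HBS-EP, pH 7.4. Analyte (100 nM to 0.1 nM) flowed for 180 s, then dissociated for 1000 or 1200 s, over amine-coupled human B7-H4-Fc, human B7-H4-his or mouse B7-H4-Fc surfaces at 50-100 RU.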

[5] = molecular target: T6, IgV domain of human B7-H4-Fc (human); assay: ELISA, coated hB7-H4 IgV domain
T6 construct: also called hB7-H4 IgV domain
T6 sequence (chain, as listed by the source): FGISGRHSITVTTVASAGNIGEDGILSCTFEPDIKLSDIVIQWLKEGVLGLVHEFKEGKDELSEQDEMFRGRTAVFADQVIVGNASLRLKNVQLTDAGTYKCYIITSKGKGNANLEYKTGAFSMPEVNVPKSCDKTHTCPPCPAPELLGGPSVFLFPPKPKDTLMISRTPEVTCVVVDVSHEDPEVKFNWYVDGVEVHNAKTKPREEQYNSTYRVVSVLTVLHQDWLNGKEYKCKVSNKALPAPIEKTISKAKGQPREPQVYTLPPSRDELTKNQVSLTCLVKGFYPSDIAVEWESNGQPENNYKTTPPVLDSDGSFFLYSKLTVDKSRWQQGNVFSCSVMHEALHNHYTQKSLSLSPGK

[6] = molecular target: T1, human B7-H4 expressed on cells; assay: flow cytometry, MX-1 cells
Description: (§2) Cells were harvested, washed once, and then re-suspended to the concentration of 1×10⁶ cells/ml in ice cold FACS Buffer. 25 μl of cell suspension was added to each well of a 96-well round-bottom microliter plate. Serially diluted antibodies or fusion proteins were added to each well and incubated for 1 hour at 4° C. Cells were washed three times by centrifugation at 1500 rpm for 5 minutes, and then stained with secondary antibody (1:200 dilution) for 30 min at 4° C. in the dark. Cells were washed once, re-suspended in 100 μl PBS buffer and then analyzed using Guava Flow Cytometry EasyCyte system.

[7] = molecular target: T2, mB7-H4 (soluble mouse B7-H4, construct …); assay: ELISA, mB7-H4
Procedure, shortened: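 Coat: B7-H4-Fc or his-tagged protein, ~1-2 μg/ml, 4° C overnight. Block 3% PBS+milk; serial antibody dilutions 1-1.5 h RT; wash PBS-T (0.05%); HRP anti-hFab; TMB, 1N H₂SO₄ stop; OD450. EC50 from dose-response fit.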

[8] = molecular target: T3, mouse B7-H4 expressed on cells; assay: flow cytometry on mB7H4-CT26 cells
Description: as §2

Binder | EC50 (read off the curve) (human B7-H4-Fc) [µg/mL] | EC50 (read off the curve) (mouse B7-H4-Fc [1]) [nM] | EC50 [2] [nM] | EC50 (read off the curve) (mouse B7-H4-Fc [3]) [nM] | Kd [4] [nM] | EC50 (read off the curve) [5] [nM] | EC50 [6] [nM] | EC50 [7] [nM] | EC50 (read off the curve) [8] [nM]
B1 | ~0.02 | ~0.1 | 2.64 | ~0.1 |  |  |  |  | 
B2 |  |  | 2.82 |  | 0.0998 | ~0.1 | 8.87 | 0.096 | ~2
